Ends that are not written are not given here. * marks the point of attachment. Biotin = O=C1N[C@H]2[C@H](CS[C@H]2CCCCC(=O)*)N1
T1: biotinylated de2-7 specific peptide (Biotin-LEEKKGNYVVTDH) (human)
T1 construct: also called unique de2-7 EGFR peptide
T1 peptide: Biotin-LEEKKGNYVVTDH

T2: de2-7 EGFR unique junctional peptide (human)
T2 construct: non-biotinylated; also called Junction Peptide
T2 peptide: LEEKKGNYVVTDH-OH

T3: Peptide C, C-terminal biotinylated de2-7 peptide (human, C-terminal biotin; the reagent list prints it on an added lysine, LEEKKGNYVVTDH(K-Biot)-OH)
T3 peptide: LEEKKGNYVVTDH

B1: chimeric antibody ch806 (antibody, human IgG1, V domains shown)
VH: DVQLQESGPSLVKPSQSLSLTCTVTGYSITSDFAWNWIRQFPGNKLEWMGYISYSGNTRYNPSLKSRISITRDTSKNQFFLQLNSVTIEDTATYYCVTAGRGFPYWGQGTLVTVSA
VL: DILMTQSPSSMSVSLGDTVSITCHSSQDINSNIGWLQQRPGKSFKGLIYHGTNLDDEVPSRFSGSGSGADYSLTISSLESEDFADYYCVQYAQFPWTFGGGTKLEIKR
notes: also called chAb806
B2: mAb806 (antibody, V domains shown)
VH: B1 VH
VL: B1 VL
notes: murine IgG2b

Tests used:
[1] = target: T4, anti-idiotype antibody LMH-12; assay: sandwich ELISA: capture on plate-bound LMH-12 (10 µg/ml), detection with biotinylated LMH-12 and avidin-HRP
T4 construct: mouse IgG1 kappa; also called clone 5B8; SB8

[2] = target: T1, biotinylated de2-7 specific peptide …; assay: ELISA, biotinylated peptide on streptavidin plates
[3] = target: EGFR fragment 1-176, yeast-displayed (human, UniProt P00533 25-200); assay: flow cytometry on yeast displaying the EGFR fragment, % positive cells
[4] = target: EGFR fragment 475-621, yeast-displayed (human, UniProt P00533 499-645); assay: as above
[5] = target: T2, de2-7 EGFR unique junctional peptide; assay: dot-blot immune stain
[6] = target: T3, Peptide C, C-terminal biotinylated …; assay: BIAcore, Peptide C on streptavidin chip
[7] = target: T5, EGFR fragment 1-294, yeast-displayed (human, UniProt P00533 25-318); assay: flow cytometry, indirect immunofluorescence on yeast displaying EGFR fragment 1-294
T5 construct: range 1-294

Binder	EC50 (read off the curve) [1] [µg/mL]	binding result [2]	binding result [3]	binding result [4]	binding result [5]	binding result [6]	binding result [7]
B1	~0.6	–	–	–	–	–	–
B2	~0.07	no binding	no binding (tested: 10 µg/ml (single concentration))	no binding (tested: 10 µg/ml (single concentration))	no binding	no binding (tested: 100 nM)	no binding (tested: 10 µg/ml (single concentration))

Reference: US20110293511A1 (LUDWIG INSTITUTE FOR CANCER RESEARCH, published 2011)
